Assay results reported in patent US20110008345A1 (GlaxoSmithKline, published 2011).

Legend:
[1] = target: T1, recombinant E. coli-expressed human IL-4 (human, UniProt P05112 25-153); test: SPR
T1 construct: made and purified at GSK; also called Interleukin-4; rhIL-4
T1 sequence: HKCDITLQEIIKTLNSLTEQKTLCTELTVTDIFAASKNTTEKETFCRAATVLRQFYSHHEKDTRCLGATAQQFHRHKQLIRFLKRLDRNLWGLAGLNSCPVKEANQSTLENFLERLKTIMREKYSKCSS

[2] = target: T2, recombinant E. coli-expressed human IL-13 (human, UniProt P35225 35-146); test: SPR
T2 construct: made and purified at GSK; also called Interleukin-13; rhIL-13

[3] = target: T2, recombinant E. coli-expressed human …; test: SPR exp 1
[4] = target: T1, recombinant E. coli-expressed human IL-4; test: SPR exp 1

Binder	Kd [1] [nM]	koff [1] [s⁻¹]	kon [1] [M⁻¹ s⁻¹]	Kd [2] [nM]	other results
586H-147 (bispecific antibody, human IgG1, kappa) heavy: not shown light: DIVMTQSPLSLPVTPGEPASISCRSSQNIVHINGNTYLEWYLQKPGQSPRLLIYKISDRFSGVPDRFSGSGSGTDFTLKISRVEADDVGIYYCFQGSHVPWTFGQGTKLEIKRTVAAPSVFIFPPSDEQLKSGTASVVCLLNNFYPREAKVQWKVDNALQSGNSQESVTEQDSKDSTYSLSSTLTLSKADYEKHKVYACEVTHQGLSSPVTKSFNRGEC	345	0.00118	3420	0.46	
586H-25 (bispecific antibody, human IgG1, kappa) heavy: not shown light: DIVMTQSPLSLPVTPGEPASISCRSSQNIVHINGNTYLEWYLQKPGQSPRLLIYKISDRFSGVPDRFSGSGSGTDFTLKISRVEADDVGIYYCFQGSHVPWTFGQGTKLEIKRTVAAPSVFIFPPSDEQLKSGTASVVCLLNNFYPREAKVQWKVDNALQSGNSQESVTEQDSKDSTYSLSSTLTLSKADYEKHKVYACEVTHQGLSSPVTKSFNRGEC	67	0.000411	6130	0.39	
586H-154 (bispecific antibody, human IgG1, kappa) heavy: not shown light: DIVMTQSPLSLPVTPGEPASISCRSSQNIVHINGNTYLEWYLQKPGQSPRLLIYKISDRFSGVPDRFSGSGSGTDFTLKISRVEADDVGIYYCFQGSHVPWTFGQGTKLEIKRTVAAPSVFIFPPSDEQLKSGTASVVCLLNNFYPREAKVQWKVDNALQSGNSQESVTEQDSKDSTYSLSSTLTLSKADYEKHKVYACEVTHQGLSSPVTKSFNRGEC	285	0.00174	6100	0.46	
586H-ASTKG-147 (bispecific antibody, human IgG1, kappa) heavy: not shown light: DIVMTQSPLSLPVTPGEPASISCRSSQNIVHINGNTYLEWYLQKPGQSPRLLIYKISDRFSGVPDRFSGSGSGTDFTLKISRVEADDVGIYYCFQGSHVPWTFGQGTKLEIKRTVAAPSVFIFPPSDEQLKSGTASVVCLLNNFYPREAKVQWKVDNALQSGNSQESVTEQDSKDSTYSLSSTLTLSKADYEKHKVYACEVTHQGLSSPVTKSFNRGEC	18.8	0.00069	36700	0.44	
586H-ASTKG-25 (bispecific antibody, human IgG1, kappa) heavy: not shown light: DIVMTQSPLSLPVTPGEPASISCRSSQNIVHINGNTYLEWYLQKPGQSPRLLIYKISDRFSGVPDRFSGSGSGTDFTLKISRVEADDVGIYYCFQGSHVPWTFGQGTKLEIKRTVAAPSVFIFPPSDEQLKSGTASVVCLLNNFYPREAKVQWKVDNALQSGNSQESVTEQDSKDSTYSLSSTLTLSKADYEKHKVYACEVTHQGLSSPVTKSFNRGEC	21.8	0.0012		0.54	
586H-ASTKG-154 (bispecific antibody, human IgG1, kappa) heavy: not shown light: DIVMTQSPLSLPVTPGEPASISCRSSQNIVHINGNTYLEWYLQKPGQSPRLLIYKISDRFSGVPDRFSGSGSGTDFTLKISRVEADDVGIYYCFQGSHVPWTFGQGTKLEIKRTVAAPSVFIFPPSDEQLKSGTASVVCLLNNFYPREAKVQWKVDNALQSGNSQESVTEQDSKDSTYSLSSTLTLSKADYEKHKVYACEVTHQGLSSPVTKSFNRGEC	8.7	0.000284	32600	0.44	
586H-EPKSC-147 (bispecific antibody, human IgG1, kappa) heavy: not shown light: DIVMTQSPLSLPVTPGEPASISCRSSQNIVHINGNTYLEWYLQKPGQSPRLLIYKISDRFSGVPDRFSGSGSGTDFTLKISRVEADDVGIYYCFQGSHVPWTFGQGTKLEIKRTVAAPSVFIFPPSDEQLKSGTASVVCLLNNFYPREAKVQWKVDNALQSGNSQESVTEQDSKDSTYSLSSTLTLSKADYEKHKVYACEVTHQGLSSPVTKSFNRGEC	26.4	0.000671	25400	0.46	
586H-EPKSC-25 (bispecific antibody, human IgG1, kappa) heavy: not shown light: DIVMTQSPLSLPVTPGEPASISCRSSQNIVHINGNTYLEWYLQKPGQSPRLLIYKISDRFSGVPDRFSGSGSGTDFTLKISRVEADDVGIYYCFQGSHVPWTFGQGTKLEIKRTVAAPSVFIFPPSDEQLKSGTASVVCLLNNFYPREAKVQWKVDNALQSGNSQESVTEQDSKDSTYSLSSTLTLSKADYEKHKVYACEVTHQGLSSPVTKSFNRGEC	29.6	0.00142	47900	0.55	
586H-EPKSC-154 (bispecific antibody, human IgG1, kappa) heavy: not shown light: DIVMTQSPLSLPVTPGEPASISCRSSQNIVHINGNTYLEWYLQKPGQSPRLLIYKISDRFSGVPDRFSGSGSGTDFTLKISRVEADDVGIYYCFQGSHVPWTFGQGTKLEIKRTVAAPSVFIFPPSDEQLKSGTASVVCLLNNFYPREAKVQWKVDNALQSGNSQESVTEQDSKDSTYSLSSTLTLSKADYEKHKVYACEVTHQGLSSPVTKSFNRGEC	18.8	0.00057	30300	0.42	
PascoH-ELQLE-474 (bispecific antibody, human IgG1, kappa) heavy: not shown light: DIVLTQSPSSLSASVGDRVTITCKASQSVDYDGDSYMNWYQQKPGKAPKLLIYAASNLESGIPSRFSGSGSGTDFTFTISSLQPEDIATYYCQQSNEDPPTFGQGTKVEIKRTVAAPSVFIFPPSDEQLKSGTASVVCLLNNFYPREAKVQWKVDNALQSGNSQESVTEQDSKDSTYSLSSTLTLSKADYEKHKVYACEVTHQGLSSPVTKSFNRGEC					Kd [3]: 1.8 nM; koff [3]: 0.00062 s⁻¹; kon [3]: 340000 M⁻¹ s⁻¹; Kd [4]: 0.02 nM; koff [4]: 0.00011 s⁻¹; kon [4]: 5.1e+06 M⁻¹ s⁻¹
PascoH-EPKSC-474 (bispecific antibody, human IgG1, kappa) heavy: not shown light: DIVLTQSPSSLSASVGDRVTITCKASQSVDYDGDSYMNWYQQKPGKAPKLLIYAASNLESGIPSRFSGSGSGTDFTFTISSLQPEDIATYYCQQSNEDPPTFGQGTKVEIKRTVAAPSVFIFPPSDEQLKSGTASVVCLLNNFYPREAKVQWKVDNALQSGNSQESVTEQDSKDSTYSLSSTLTLSKADYEKHKVYACEVTHQGLSSPVTKSFNRGEC					Kd [3]: 1.1 nM; koff [3]: 0.0004 s⁻¹; kon [3]: 350000 M⁻¹ s⁻¹; Kd [4]: 0.02 nM; koff [4]: 9.8e-05 s⁻¹; kon [4]: 4.9e+06 M⁻¹ s⁻¹
586H-G4S-147 (bispecific antibody, human IgG1, kappa) heavy: not shown light: DIVMTQSPLSLPVTPGEPASISCRSSQNIVHINGNTYLEWYLQKPGQSPRLLIYKISDRFSGVPDRFSGSGSGTDFTLKISRVEADDVGIYYCFQGSHVPWTFGQGTKLEIKRTVAAPSVFIFPPSDEQLKSGTASVVCLLNNFYPREAKVQWKVDNALQSGNSQESVTEQDSKDSTYSLSSTLTLSKADYEKHKVYACEVTHQGLSSPVTKSFNRGEC	108	0.000457	4210	0.45	
586H-G4S-25 (bispecific antibody, human IgG1, kappa) heavy: not shown light: DIVMTQSPLSLPVTPGEPASISCRSSQNIVHINGNTYLEWYLQKPGQSPRLLIYKISDRFSGVPDRFSGSGSGTDFTLKISRVEADDVGIYYCFQGSHVPWTFGQGTKLEIKRTVAAPSVFIFPPSDEQLKSGTASVVCLLNNFYPREAKVQWKVDNALQSGNSQESVTEQDSKDSTYSLSSTLTLSKADYEKHKVYACEVTHQGLSSPVTKSFNRGEC	151	0.000954	6300	0.41	
586H-G4S-154 (bispecific antibody, human IgG1, kappa) heavy: not shown light: DIVMTQSPLSLPVTPGEPASISCRSSQNIVHINGNTYLEWYLQKPGQSPRLLIYKISDRFSGVPDRFSGSGSGTDFTLKISRVEADDVGIYYCFQGSHVPWTFGQGTKLEIKRTVAAPSVFIFPPSDEQLKSGTASVVCLLNNFYPREAKVQWKVDNALQSGNSQESVTEQDSKDSTYSLSSTLTLSKADYEKHKVYACEVTHQGLSSPVTKSFNRGEC	138	0.000685	5000	0.37	
586H (antibody, human IgG1, kappa, no dAb; heavy chain ends in GS) heavy: not shown light: DIVMTQSPLSLPVTPGEPASISCRSSQNIVHINGNTYLEWYLQKPGQSPRLLIYKISDRFSGVPDRFSGSGSGTDFTLKISRVEADDVGIYYCFQGSHVPWTFGQGTKLEIKRTVAAPSVFIFPPSDEQLKSGTASVVCLLNNFYPREAKVQWKVDNALQSGNSQESVTEQDSKDSTYSLSSTLTLSKADYEKHKVYACEVTHQGLSSPVTKSFNRGEC				0.44	binding result [1]: no binding (tested: 512 nM top concentration)
586H-ASTKG (antibody, human IgG1, kappa, no dAb; linker only) heavy: not shown light: DIVMTQSPLSLPVTPGEPASISCRSSQNIVHINGNTYLEWYLQKPGQSPRLLIYKISDRFSGVPDRFSGSGSGTDFTLKISRVEADDVGIYYCFQGSHVPWTFGQGTKLEIKRTVAAPSVFIFPPSDEQLKSGTASVVCLLNNFYPREAKVQWKVDNALQSGNSQESVTEQDSKDSTYSLSSTLTLSKADYEKHKVYACEVTHQGLSSPVTKSFNRGEC				0.32	binding result [1]: no binding (tested: 512 nM top concentration)
586H-ELQLE (antibody, human IgG1, kappa, no dAb; linker only) heavy: not shown light: DIVMTQSPLSLPVTPGEPASISCRSSQNIVHINGNTYLEWYLQKPGQSPRLLIYKISDRFSGVPDRFSGSGSGTDFTLKISRVEADDVGIYYCFQGSHVPWTFGQGTKLEIKRTVAAPSVFIFPPSDEQLKSGTASVVCLLNNFYPREAKVQWKVDNALQSGNSQESVTEQDSKDSTYSLSSTLTLSKADYEKHKVYACEVTHQGLSSPVTKSFNRGEC				0.47	binding result [1]: no binding (tested: 512 nM top concentration)
586H-EPKSC (antibody, human IgG1, kappa) heavy: not shown light: DIVMTQSPLSLPVTPGEPASISCRSSQNIVHINGNTYLEWYLQKPGQSPRLLIYKISDRFSGVPDRFSGSGSGTDFTLKISRVEADDVGIYYCFQGSHVPWTFGQGTKLEIKRTVAAPSVFIFPPSDEQLKSGTASVVCLLNNFYPREAKVQWKVDNALQSGNSQESVTEQDSKDSTYSLSSTLTLSKADYEKHKVYACEVTHQGLSSPVTKSFNRGEC				0.45	binding result [1]: no binding (tested: 512 nM top concentration)
